± gives the standard deviation of the averaged measurements.
system: Saccharomyces cerevisiae; assay: protein stability index of tFT-peptide fusion (C-terminal peptide) (PSI (0-1 scale)); higher = more stable (slower turnover); conditions: genetic background: wild type; temperature: 37 C
Procedure: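 MPS profiling in S. cerevisiae of the tFT-X12 degron library: putative degron peptides plus stable controls, 12 aa, fused to the C-terminus of a sfGFP-mCherry timer. Cells are FACS-sorted into 8 mCherry/sfGFP bins and deep-sequenced. PSI runs from 0 (unstable) to 1 (stable). Backgrounds are wild type, das1Δ and doa10Δ at 30 °C, and wild type, das1Δ, cdc34-1 and cdc53-1 at 37 °C; 2-3 technical replicates each.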
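Further: PSI is a weighted mean of sequencing reads over stability bins, variants kept only with over 10 reads, mCherry proximal and sfGFP distal, peptide attached via GGGS linker.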

Sequence	protein stability index
PSPVRSSYASTL	0.68992 ± 0.00058
PSVRCVVACFIN	0.165 ± 0.015
PVGRSVFFVWFL	0.554 ± 0.013
PVKGTMIKAKNT	0.341 ± 0.043
PVLSLPPLSSPP	0.7044 ± 0.0064
PVLYSFSLWIHL	0.389 ± 0.02
PVWLFLVRAIKG	0.512 ± 0.056
PWLLHTPLSLVF	0.4 ± 0.0051
QCLSYFFPVPVA	0.192 ± 0.018
QGRRKEKAVTLN	0.241 ± 0.022
QKGLFYCVILYC	0.272 ± 0.0046
RDGAHFLLILVC	0.154 ± 0.019
RFFFSSFPLLIS	0.307 ± 0.016
RFLVVVRFYWRC	0.36 ± 0.0067
RGFIYCSFVVRL	0.465 ± 0.022
RGLLLKILIASG	0.382 ± 0.0086
RGVGSGGLEGIG	0.5404 ± 0.0019
RGVPPPPWTPPP	0.716 ± 0.014
RIWRLLIIIIKK	0.456 ± 0.012
RKRKKISEIIAI	0.637 ± 0.003
RLPFPVVLFLLF	0.404 ± 0.011
RLVMAVRVAAGG	0.524 ± 0.031
RMLSLFFPLRTL	0.4527 ± 0.0036
RNWVVDGWRRFP	0.525 ± 0.031
RPCLSALRFRFF	0.3204 ± 0.00076
RPHPLHIPRRLA	0.391 ± 0.037

Sequence	protein stability index
RQINEKKKLYMI	0.182 ± 0.029
RRGLIFFLCCPA	0.432 ± 0.011
RRLYERNKNNKQ	0.649 ± 0.013
RRRRGGQSPALR	0.6636 ± 0.0065
RRTTIFDTKEPP	0.5689 ± 0.0054
RRVFPLIIVLLF	0.221 ± 0.013
RSCKSIRGIFVC	0.388 ± 0.013
RSFPCITVFIRA	0.5088 ± 0.0019
RSKWEKLDKIVS	0.575 ± 0.018
RVCVFVLFGLCF	0.441 ± 0.0053
RWGLCFVHVTMF	0.152 ± 0.014
RWRLWVGWWVVG	0.142 ± 0.017
RYRVRIVVFGLV	0.0807 ± 0.0076
SCFCFRVLLCSF	0.364 ± 0.0086
SCLFMLFPLVSV	0.5013 ± 0.0033
SCLLVVVSTSGN	0.588 ± 0.022
SFFVCVRVFGCC	0.398 ± 0.011
SFFWAMSLLCFV	0.498 ± 0.00077
SFGLICFLILCG	0.301 ± 0.0073
SFIVGYRWNNRN	0.5776 ± 0.0018
SFVVVFTFFFGC	0.377 ± 0.02
SGFLRFRGLVCY	0.464 ± 0.008
SGFWVSVDVFFV	0.29 ± 0.0036
SGLPLVILFLCL	0.576 ± 0.038
SGRATSSRTSEP	0.7036 ± 0.0011
SGWGCRMVVCAG	0.265 ± 0.0084

Sequence	protein stability index
SHPAPPSPPPSP	0.534 ± 0.0059
SILFSYFCFFLL	0.443 ± 0.0077
SLCPFLCILCFG	0.347 ± 0.0085
SLCVVIFFSSIT	0.413 ± 0.0017
SLPVSPLVRLLA	0.2102 ± 0.0012
SLRICACMTVSW	0.29 ± 0.013
SLSALPRPPRLL	0.694 ± 0.0087
SPPHSPSALPPP	0.701 ± 0.0078
SPWSIHLILLQV	0.36 ± 0.034
SQCVVYLSVRFS	0.4565 ± 0.0028
SQKKKIKKYKET	0.208 ± 0.049
SREQANTVYRLI	0.553 ± 0.0053
SRFFSCCVFPSF	0.737 ± 0.023
SRKRIVALMLSG	0.273 ± 0.0082
SRNSSRYLLLVS	0.405 ± 0.011
SRVGAGVVRGVG	0.5391 ± 0.0031
SRVHHLWAILVP	0.339 ± 0.0039
SSGAVGLVIVVC	0.247 ± 0.0078
SSGRLRFISRIH	0.5972 ± 0.0037
SSVFLGWLIVCY	0.255 ± 0.027
SSVGLFVLLCLV	0.323 ± 0.0056
STVGAWGRVGEG	0.472 ± 0.0089
SVFFRPVLICCA	0.048 ± 0.0039
SVLAIWLTVTLK	0.139 ± 0.0076
SVLVSVVLFVRS	0.289 ± 0.026
SVSMYPKPHLIC	0.181 ± 0.015

system: Saccharomyces cerevisiae; assay: as above; conditions: genetic background: wild type; temperature: 30 C

Sequence	protein stability index
PSPVRSSYASTL	0.711 ± 0.049
PSVRCVVACFIN	0.277 ± 0.015
PVGRSVFFVWFL	0.458 ± 0.019
PVKGTMIKAKNT	0.354 ± 0.068
PVLSLPPLSSPP	0.7068 ± 0.0043
PVLYSFSLWIHL	0.361 ± 0.0082
PVWLFLVRAIKG	0.431 ± 0.0097
PWLLHTPLSLVF	0.434 ± 0.0077
QCLSYFFPVPVA	0.258 ± 0.035
QGRRKEKAVTLN	0.3 ± 0.015
QKGLFYCVILYC	0.316 ± 0.017
RDGAHFLLILVC	0.203 ± 0.059
RFFFSSFPLLIS	0.282 ± 0.013
RFLVVVRFYWRC	0.439 ± 0.044
RGFIYCSFVVRL	0.412 ± 0.0052
RGLLLKILIASG	0.237 ± 0.081
RGVGSGGLEGIG	0.541 ± 0.061
RGVPPPPWTPPP	0.539 ± 0.062
RIWRLLIIIIKK	0.325 ± 0.12
RKRKKISEIIAI	0.52 ± 0.047
RLPFPVVLFLLF	0.352 ± 0.013
RLVMAVRVAAGG	0.451 ± 0.034
RMLSLFFPLRTL	0.395 ± 0.035
RNWVVDGWRRFP	0.282 ± 0.069
RPCLSALRFRFF	0.206 ± 0.015
RPHPLHIPRRLA	0.238 ± 0.028

Sequence	protein stability index
RQINEKKKLYMI	0.215 ± 0.033
RRGLIFFLCCPA	0.466 ± 0.053
RRLYERNKNNKQ	0.435 ± 0.072
RRRRGGQSPALR	0.711 ± 0.015
RRTTIFDTKEPP	0.462 ± 0.017
RRVFPLIIVLLF	0.202 ± 0.0087
RSCKSIRGIFVC	0.315 ± 0.027
RSFPCITVFIRA	0.4235 ± 0.0035
RSKWEKLDKIVS	0.455 ± 0.0083
RVCVFVLFGLCF	0.383 ± 0.011
RWGLCFVHVTMF	0.173 ± 0.011
RWRLWVGWWVVG	0.12 ± 0.0055
RYRVRIVVFGLV	0.14 ± 0.018
SCFCFRVLLCSF	0.383 ± 0.0064
SCLFMLFPLVSV	0.432 ± 0.0046
SCLLVVVSTSGN	0.433 ± 0.0062
SFFVCVRVFGCC	0.337 ± 0.021
SFFWAMSLLCFV	0.455 ± 0.043
SFGLICFLILCG	0.2964 ± 0.00086
SFIVGYRWNNRN	0.443 ± 0.047
SFVVVFTFFFGC	0.312 ± 0.015
SGFLRFRGLVCY	0.359 ± 0.019
SGFWVSVDVFFV	0.2434 ± 0.0016
SGLPLVILFLCL	0.476 ± 0.0088
SGRATSSRTSEP	0.78 ± 0.024
SGWGCRMVVCAG	0.245 ± 0.0031

Sequence	protein stability index
SHPAPPSPPPSP	0.413 ± 0.0094
SILFSYFCFFLL	0.356 ± 0.01
SLCPFLCILCFG	0.355 ± 0.009
SLCVVIFFSSIT	0.356 ± 0.02
SLPVSPLVRLLA	0.235 ± 0.021
SLRICACMTVSW	0.353 ± 0.005
SLSALPRPPRLL	0.614 ± 0.26
SPPHSPSALPPP	0.587 ± 0.15
SPWSIHLILLQV	0.318 ± 0.025
SQCVVYLSVRFS	0.447 ± 0.024
SQKKKIKKYKET	0.217 ± 0.033
SREQANTVYRLI	0.376 ± 0.008
SRFFSCCVFPSF	0.766 ± 0.017
SRKRIVALMLSG	0.292 ± 0.013
SRNSSRYLLLVS	0.316 ± 0.013
SRVGAGVVRGVG	0.488 ± 0.038
SRVHHLWAILVP	0.345 ± 0.016
SSGAVGLVIVVC	0.276 ± 0.014
SSGRLRFISRIH	0.454 ± 0.027
SSVFLGWLIVCY	0.245 ± 0.0037
SSVGLFVLLCLV	0.302 ± 0.02
STVGAWGRVGEG	0.459 ± 0.025
SVFFRPVLICCA	0.101 ± 0.037
SVLAIWLTVTLK	0.145 ± 0.0018
SVLVSVVLFVRS	0.279 ± 0.0029
SVSMYPKPHLIC	0.243 ± 0.0026
